Measured values reported in patent US20190092852A1 (Genentech, published 2019).
Several values for one entry are separate records, joined by “and”; a condition that tells them apart may be missing. Identical values can stand only once.

Legend:
[1] = biological target: T1, human IL-33 (Genentech, huIL33.his) (human, UniProt O95760 112-270); test: SPR Biacore
T1 sequence (looked up): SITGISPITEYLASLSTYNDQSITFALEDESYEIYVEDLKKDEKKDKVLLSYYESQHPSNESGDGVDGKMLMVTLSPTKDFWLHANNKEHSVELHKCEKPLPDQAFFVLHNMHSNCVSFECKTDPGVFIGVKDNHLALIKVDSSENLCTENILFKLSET

[2] = biological target: T2, cyno IL-33 (construct not stated) (cynomolgus monkey, UniProt A0A2K5W3I1 112-269); test: SPR Biacore
T2 construct: also called cynomolgus IL-33; cyno IL-33 (Genentech)
T2 sequence: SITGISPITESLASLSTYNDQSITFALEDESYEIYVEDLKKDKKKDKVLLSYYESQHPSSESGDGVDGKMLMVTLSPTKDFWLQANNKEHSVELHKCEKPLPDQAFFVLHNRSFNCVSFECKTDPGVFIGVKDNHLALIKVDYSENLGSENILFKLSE

[3] = biological target: T3, human IL-33 (cell-based blocking assay of Example 2) (human, UniProt O95760 112-270); test: cell-based or functional assay
T3 sequence (looked up): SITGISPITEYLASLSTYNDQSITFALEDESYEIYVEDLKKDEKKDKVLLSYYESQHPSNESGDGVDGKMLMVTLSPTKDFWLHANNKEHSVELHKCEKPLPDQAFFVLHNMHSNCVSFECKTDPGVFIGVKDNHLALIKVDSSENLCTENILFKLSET

[4] = biological target: T4, cyno IL-33 (cell-based blocking assay of Example 2) (cynomolgus monkey, UniProt A0A2K5W3I1 95-269); test: cell-based or functional assay
T4 sequence: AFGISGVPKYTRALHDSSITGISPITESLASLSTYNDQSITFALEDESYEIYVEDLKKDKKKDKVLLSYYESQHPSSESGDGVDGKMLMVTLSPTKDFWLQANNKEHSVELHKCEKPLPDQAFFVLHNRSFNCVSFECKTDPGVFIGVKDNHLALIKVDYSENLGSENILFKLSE

[5] = biological target: T3, human IL-33 (cell-based blocking assay …); test: cell-based or functional assay; remark: listed apart in the source
[6] = biological target: T4, cyno IL-33 (cell-based blocking assay …); test: cell-based or functional assay; remark: listed apart in the source

Kd [1]: 0.015 nM
Kd [2]: 0.037 nM
Cell assay (hu) IC90 [3]: 0.004 µg/mL and 0.026 nM
Cell assay (cy) IC90 [4]: 0.185 µg/mL and 1.22 nM
IC50 (HEK-BLUE SEAP reporter, IL-33 blocking) [5]: 0.002 nM
IC90 (HEK-BLUE SEAP reporter, IL-33 blocking) [5]: 20.5 pM and 0.0031 µg/mL
IC50 (HEK-BLUE SEAP reporter, IL-33 blocking) [6]: 0.181 nM
IC90 (HEK-BLUE SEAP reporter, IL-33 blocking) [6]: 1220 pM and 0.183 µg/mL
B1: 10C12.38.H6.87Y.58I (antibody, V domains shown)
VH: EVQLVESGGGLVQPGGSLRLSCAASGFTFSSFSMSWVRQAPGKGLEWVATISGGKTFTDYVDSVKGRFTISRDDSKNTLYLQMNSLRAEDTAVYYCTRANYGNWFFEVWGQGTLVTVSS
VL: EIVLTQSPATLSLSPGERATLSCRASESVAKYGLSLLNWFQQKPGQPPRLLIFAASNRGSGIPARFSGSGSGTDFTLTISSLEPEDFAVYYCQQSKEVPFTFGQGTKVEIK
